pKd: −log10 of the molar value.
Target: CBD-NpuDnaE_(NΔ16)
Test: SPR

pKd: 8.80
Substance: NpuDnaEC16-eGFP (domain or fragment)

From doi:10.1101/215566
